# According to patent US20110008344A1 (THOMAS JEFFERSON UNIVERSITY, published 2011):
# Read-outs that look alike come from different tables or passages of the source.
# Tests used:
# [1] = molecular target: T1, recombinant 50 kD C-terminal BoNT/A domain (HC50A) (Clostridium botulinum, UniProt P0DPI1 861-1296); assay: KinExA Direct Kinetics method, […]; KinExA, solution phase
# [2] = molecular target: T1, recombinant 50 kD C-terminal BoNT/A …
# [3] = molecular target: T1, recombinant 50 kD C-terminal BoNT/A …; assay: KinExA, solution phase
# [4] = molecular target: T1, recombinant 50 kD C-terminal BoNT/A …; assay: SPR (Biacore 3000), 13A immobilized on CM5 chip, HC50A as analyte
binder,measurement,setting,value
"botulinum neurotoxin 13A antibody (human monoclonal antibody produced by hybridoma 13A, ATCC PTA-8871) (antibody, V domains shown) VH: EVQLVESGGGLVQPGRSLRLSCTASGFTFGDSAMSWVRQAPGKGLEWVGFIRGKPYGGKPEYAASVKGRFTISRDDSKSIAYLQMNSLKTEDTAVYYCTAGMTTVTIYDYWGQGTLVTVSS VL: QPLSVSVALGQTAGITCEGNNIGSKNVHWYQQKPGQAPVLVIYRDSNRPSGIPERFSGFNSGNTATLTISRVQAGDEADYYCQVWDSSTGVFGGGTELTVLG",kon,[1],7.2e+06 M⁻¹ s⁻¹
same,Kd,[2],0.052 nM
same,Kd,[3],0.097 nM
same,kon,[4],1.7e+07 M⁻¹ s⁻¹
